# Legend:
# CD3 [1] = molecular target: CD3 (UniProt P07766); assay: flow cytometry on Jurkat E6.1 cells, 3.16 nM, anti-HIS-PE
# CD3 [2] = molecular target: CD3 (UniProt P07766); assay: flow cytometry on Jurkat E6.1 cells, 316 nM, anti-HIS-PE
# CD3 [3] = molecular target: CD3 (UniProt P07766); assay: flow cytometry on Jurkat E6.1 cells, 10 nM, anti-HIS-PE
# CD3 [4] = molecular target: CD3 (UniProt P07766); assay: flow cytometry on Jurkat E6.1 cells, 100 nM, anti-HIS-PE
# CD3 [5] = molecular target: CD3 (UniProt P07766); assay: flow cytometry on Jurkat E6.1 cells, 31.6 nM, anti-HIS-PE
# CD3 [6] = molecular target: CD3 (UniProt P07766); assay: flow cytometry on Jurkat E6.1 cells, 1 nM, anti-HIS-PE
# CD3 [7] = molecular target: CD3 (UniProt P07766); assay: flow cytometry on Jurkat E6.1 cells, 0.32 nM, anti-HIS-PE
# CD3 [8] = molecular target: CD3 (UniProt P07766); assay: flow cytometry on Jurkat E6.1 cells, 1000 nM, anti-HIS-PE
# [9] = molecular target: T1, CD3 (CD3-positive Jurkat E6.1 cells) (Homo sapiens, UniProt P07766); assay: CD3 binding analysis by FACS on CD3-positive cells; settings: Table 1
# T1 construct: Jurkat E6.1 cells, which express CD3 on the cell surface; endogenous in cells; host or cells: Jurkat E6.1
# Experimental: Both cell lines were cultured in RPMI 1640 supplemented with 1% pen/strep and 10% fetal bovine serum at a concentration of 2 × 10^5 to 1 × 10^6 cells/ml. Cells were washed in fresh medium before the experiment and 100,000 cells per well were seeded in a 96-wells plate (duplicate wells). The dilution series of 6 antibodies were made in phosphate-buffered saline (PBS). The antibodies were diluted 10 times in the cell suspension and incubated at 4° C. in the dark for 30 minutes. After incubation, the cells were washed twice in cold PBS / 0.5% BSA, and incubated with anti-HIS-PE (only for 200) or anti-lgG1-PE (for all other compounds) at 4° C., in the dark for 30 minutes. After the second incubation step, the cells were washed twice. 7AAD was added as a live-dead staining. Detection of the fluorescence in the Yellow-B channel (anti-IgG1-PE and anti-HIS-PE) and the Red-B channel (7AAD) was done with the Guava 5HT flow cytometer. Median fluorescence intensity in the Yellow-B channel (anti-IgG1-PE and anti-HIS-PE) in life cells was determined with Kaluza software.
# Sequence of CD3 (P07766 23-207): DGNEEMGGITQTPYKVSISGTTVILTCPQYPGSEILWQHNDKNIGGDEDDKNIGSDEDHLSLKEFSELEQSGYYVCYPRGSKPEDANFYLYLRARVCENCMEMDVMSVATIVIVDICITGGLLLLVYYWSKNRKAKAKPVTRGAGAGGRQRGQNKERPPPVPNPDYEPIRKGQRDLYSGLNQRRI
# T1 sequence (P07766 23-207): as above
# T1 sequence (P09693 23-182 partner): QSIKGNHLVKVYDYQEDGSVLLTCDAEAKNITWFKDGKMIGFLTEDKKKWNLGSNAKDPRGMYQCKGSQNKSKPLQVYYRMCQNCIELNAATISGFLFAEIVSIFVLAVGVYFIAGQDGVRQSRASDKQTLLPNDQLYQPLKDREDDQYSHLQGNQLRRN
# T1 sequence (P04234 22-171 partner): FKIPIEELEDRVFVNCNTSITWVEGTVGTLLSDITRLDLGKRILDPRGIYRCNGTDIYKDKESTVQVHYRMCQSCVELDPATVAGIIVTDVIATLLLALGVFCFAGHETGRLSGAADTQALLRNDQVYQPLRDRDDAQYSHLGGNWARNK
# T1 sequence (P20963 22-164 partner): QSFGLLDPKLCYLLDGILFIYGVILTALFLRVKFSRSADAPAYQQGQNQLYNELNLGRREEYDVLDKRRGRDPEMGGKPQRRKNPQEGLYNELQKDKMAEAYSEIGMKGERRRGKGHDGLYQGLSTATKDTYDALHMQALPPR
median fluorescence intensity (CD3 [1]),median fluorescence intensity (CD3 [2]),median fluorescence intensity (CD3 [3]),median fluorescence intensity (CD3 [4]),median fluorescence intensity (CD3 [5]),median fluorescence intensity (CD3 [6]),median fluorescence intensity (CD3 [7]),median fluorescence intensity (CD3 [8]),concentration-dependent binding to the CD3 positive Jurkat E6.1 cell line [9],Substance
83.7,224,110,177,154,66.2,63.6,417,,Humanized OKT3 (hOKT3) with C-terminal sortase A recognition sequence (scFv)
,,,,,,,,not,Rituximab
